Data published in patent US20220204583A1.

Biological target: recombinant transferrin receptor ectodomain (UniProt Q62351)
Experiment: competition: 8D3 pre-incubated with 2 µM soluble rTfR ectodomain, then binding to live bEnd.3 cells at 4° C., IRDye detection

Sequence of recombinant transferrin receptor ectodomain (Q62351 89-763 limits assumed): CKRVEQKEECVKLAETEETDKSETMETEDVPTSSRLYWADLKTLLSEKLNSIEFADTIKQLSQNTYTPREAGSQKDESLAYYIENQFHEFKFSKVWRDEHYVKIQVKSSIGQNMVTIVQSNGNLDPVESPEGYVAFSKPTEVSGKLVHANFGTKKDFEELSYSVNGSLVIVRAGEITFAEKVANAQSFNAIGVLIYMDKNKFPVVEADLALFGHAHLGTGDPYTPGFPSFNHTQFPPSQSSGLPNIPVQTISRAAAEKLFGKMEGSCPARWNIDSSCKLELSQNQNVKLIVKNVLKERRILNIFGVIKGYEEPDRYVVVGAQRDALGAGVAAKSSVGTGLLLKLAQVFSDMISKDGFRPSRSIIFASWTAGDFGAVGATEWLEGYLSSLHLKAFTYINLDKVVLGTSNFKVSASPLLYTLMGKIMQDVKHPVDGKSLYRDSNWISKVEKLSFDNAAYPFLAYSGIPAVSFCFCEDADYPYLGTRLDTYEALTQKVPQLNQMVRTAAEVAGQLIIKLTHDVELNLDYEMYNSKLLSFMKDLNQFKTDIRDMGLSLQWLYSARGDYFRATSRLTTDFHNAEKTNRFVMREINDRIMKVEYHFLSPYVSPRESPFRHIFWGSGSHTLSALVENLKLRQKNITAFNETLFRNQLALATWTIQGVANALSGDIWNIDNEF

B1: anti-transferrin receptor antibody (8D3) (antibody, from another filing, V domains shown)
VH: EVQLVESGGGLVQPGNSLTLSCVASGFTFSNYGMHWIRQAPKKGLEWIAMIYYDSSKMNYADTVKGRFTISRDNSKNTLYLEMNSLRSEDTAMYYCAVPTSHYVVDVWGQGVSVTVSS
VL: DIQMTQSPASLSASLEEIVTITCQASQDIGNWLAWYQQKPGKSPQLLIYGATSLADGVPSRFSGSRSGTQFSLKISRVQVEDIGIYYCLQAYNTPWTFGGGTKLELK
In the case of B1, the MBEC binding signal with rTfR competition, percent of the non-competition signal is reported as 20%.
